Laboratory results published in patent publication US9322042B2, “Thermostable cellulases, and mutants thereof, capable of hydrolyzing cellulose in ionic liquid” (The Regents of the University of California, priority 2009, dated 2016).

Legend:
[1] = Melting temperature (Tm) of the enzyme at varying EMIM Acetate concentration; type: physicochemical
[2] = Enzyme stability: overnight pre-incubation in [C2mim][OAc] and half-life; type: biochemical; settings: pre-incubation overnight (15 h) in 15% [C2mim][OAc]
[3] = Enzymatic hydrolysis of CMC (DNS / Azo-CMC reducing sugar assay) in the presence of EMIM Acetate ([C2mim][OAc]); type: biochemical
Description: (v/v) were incubated at 37° C. (T. viride), 80° C. (TmaEG, Pho EG). The specific activities were calculated as mmoles of reducing sugars formed per min per mg of enzyme. The specific activities are reported as percentages of residual specific activity, taking the specific activity of IL free enzyme a 100% activity. Error bars indicate the standard deviation.
The enzymetic activity of the cellulases of Trichoderma viride, Thermatoga maritima, and Pyrococcus horikoshii are measured under varying concentrations of EMIM Acetate. […] The enzymes activities are calculated using both the Azo-CMC assay and the DNS assay. […] At 10% EMIM Acetate the % specific activity of T. viride endoglucanase is near 0%, while at 20% EMIM Acetate the % specific activity of T. maritima endoglucanase is nearly 40%.
Enzymatic activity is measured on soluble polysaccharide substrates, CMC, using the dinitrosalicylic acid reducing sugar assay. Briefly, CMC (2% w/v) in […] acetate buffer, (100 mM, pH 4.8) is incubated with enzyme at 80° C. for 30 minutes for Tma and 37° C. and 10 minutes for T. viride. The solution is cooled down to 4° C. and 80 μL of DNS solution is added. The reactants are incubated at 95° C. for 5 minutes and cooled down to room temperature before the absorbance is read at 540 nm. The reducing sugar concentration in the sample is calculated from its absorbance using the standard curve of D-glucose. All experiments are run in triplicate.
The purified recombinant enzymes are assayed in the presence of [C2mim][OAc] and the specific activity results are compared with the cellulase from T. viride. [C2mim][OAc] was selected as the IL of choice. The assays are performed under optimum pH and temperatures for T. maritima and T. viride enzymes. Optimum pH and temperatures for T. maritima Cel5A is pH 4.8 and 80° C., respectively. Optimum pH and temperatures for T. viride cellulase is pH 4.5 and 37° C., respectively. The Pho EG is assayed at 80° C. where its specific activity is around 10% less than at 95° C. […] In the presence of 5% (v/v) [C2mim][OAc] the enzyme loses 60% of its activity while it is undetectable in the presence of 10% (v/v) [C2mim][OAc]. Both the recombinant hyperthermophilic enzymes behave very differently. Tma Cel5A in the presence of 5% [C2mim][OAc] loses 24% of its specific activity. At 15% IL (v/v), Tma Cel5A retains 50% of its specific activity. The highest residual activities are observed with Pho EG which retains 100% activity in 20% IL (v/v) (FIG. 6).
Enzymatic activity is measured on soluble polysaccharide substrates, CMC, using the 3,5-dinitrosalicylic acid (DNS) reducing sugar assay. Briefly, 2% CMC (w/v) in […] acetate buffer, (100 mM, pH 4.5 and pH 4.8 for T. viride and Tma, respectively, and 100 mM MES buffer, pH 6.4 for P. hori EG) is incubated at 80° C. for 30 min for Tma Cel5A and Pho enzymes and 37° C. and 10 min for T. viride. The solution is cooled down to 4° C. and […] of DNS solution is added. The reactants are incubated at 95° C. for 5 min and cooled down to room temperature before the absorbance is read at 540 nm. The reducing sugar concentration in the sample is calculated from its absorbance using the standard curve of D-glucose and cellobiose. For hydrolysis reactions in the presence of [C2mim][OAc], control reactions with CMC in the presence of IL but without no enzyme is subtracted from each measurement. The solid substrate (Avicel and corn stover) hydrolysis reactions are conducted at 80° C. for 15 h for the recombinant enzymes and at 37° C. for 8 h in the case of T. viride cellulose at the optimum pH for each enzyme. The reaction products are monitored using an Agilent 1200 HPLC equipped with Varian 380-LC Evaporative Light Scattering Detector. The total reaction volumes are […] and shaken at 900 rpm at temperature controlled shakers. Enzyme loadings are 0.4 mg per g of glucan and each data point is measured in triplicate. […]

B1: Tma Cel5A: wild-type cellulase of Thermatoga maritima strain MSB8 (Accession No. NP_229549); SEQ ID NO: 20 (protein, listed as Thermotoga maritima)
chain: MGVDPFERNKILGRGINIGNALEAPNEGDWGVVIKDEFFDIIKEAGFSHVRIPIRWSTHAYAFPPYKIMDRFFKRVDEVINGALKRGLAVVINIHHYEELMNDPEEHKERFLALWKQIADRYKDYPETLFFEILNEPHGNLTPEKWNELLEEALKVIRSIDKKHTIIIGTAEWGGISALEKLSVPKWEKNSIVTIHYYNPFEFTHQGAEWVEGSEKWLGRKWGSPDDQKHLIEEFNFIEEWSKKNKRPIYIGEFGAYRKADLESRIKWTSFVVREMEKRRWSWAYWEFCSGFGVYDTLRKTWNKDLLEALIGGDSIE
[1]; 0% EMIM Acetate, listed as T. maritima
  Melting Temp.: 108 °C
[1]; 0% EMIM Acetate, listed as T. maritima endoglucanase
  Melting Temp.: 109 °C
[1]; 5% EMIM Acetate
  Melting Temp.: 101 °C
[1]; 5% EMIM Acetate vs 0%
  Melting Temp. Decrease: 8 °C
[1]; 10% EMIM Acetate
  Melting Temp.: 98 °C
[1]; 10% EMIM Acetate vs 0%
  Melting Temp. Decrease: 11 °C
[1]; 15% EMIM Acetate
  Melting Temp.: 93 °C
[1]; 15% EMIM Acetate vs 0%
  Melting Temp. Decrease: 16 °C
[1]; 20% EMIM Acetate
  Melting Temp.: 89 °C
[1]; 20% EMIM Acetate vs 0%
  Melting Temp. Decrease: 20 °C
[2]
  activity retained after pre-incubation: 44%
[3]
  Optimum pH: 4.8
  Optimum temperature: 80 °C
  tolerance to EMIM Acetate compared to T. viride: more tolerant to EMIM Acetate
  activity in 2.9% EMIM Acetate compared with 0%: at least as active in 2.9% EMIM Acetate as in 0% EMIM Acetate
[3]; 0% EMIM Acetate
  % Specific Activity: 100%
  % Specific Activity (Table 5): 31 ± 2^ %
[3]; listed as T. maritima
  activity in 2.9% EMIM Acetate compared with 0%: remain unchanged
[3]; 5% (v/v) [C2mim][OAc]
  loss of specific activity: 24%
[3]; 5% EMIM Acetate
  % Specific Activity: 77%
  % Specific Activity (Table 5): 24 ± 1^ %
[3]; 10% EMIM Acetate
  % Specific Activity: 65%
  % Specific Activity (Table 5): 20 ± 0.8%
[3]; 15% EMIM Acetate
  % Specific Activity: 50%
  % Specific Activity (Table 5): 15 ± 0.5%
[3]; 20% EMIM Acetate
  % Specific Activity (Table 5): 13 ± 0.9%
[3]; 20% EMIM Acetate, listed as T. maritima endoglucanase
  % Specific Activity: 45%

B2: Pho EG: cellulase of Pyrococcus horikoshii strain OT3 (Accession No. NP_143072); SEQ ID NO: 21 (protein, listed as Pyrococcus horikoshii)
chain: MEGNTILKIVLICTILAGLFGQVVPVYAENTTYQTPTGIYYEVRGDTIYMINVTSGEETPIHLFGVNWFGFETPNHVVHGLWKRNWEDMLLQIKSLGFNAIRLPFCTESVKPGTQPIGIDYSKNPDLRGLDSLQIMEKIIKKAGDLGIFVLLDYHRIGCTHIEPLWYTEDFSEEDFINTWIEVAKRFGKYWNVIGADLKNEPHSVTSPPAAYTDGTGATWGMGNPATDWNLAAERIGKAILKVAPHWLIFVEGTQFTNPKTDSSYKWGYNAWWGGNLMAVKDYPVNLPRNKLVYSPHVYGPDVYNQPYFGPAKGFPDNLPDIWYHHFGYVKLELGYSVVIGEFGGKYGHGGDPRDVIWQNKLVDWMIENKFCDFFYWSWNPDSGDTGGILQDDWTTIWEDKYNNLKRLMDSCSKSSSSTQSVIRSTTPTKSNTSKKICGPAILIILAVFSLLLRRAPR
[2]
  activity retained after pre-incubation: 70%
[3]
  activity in 2.9% EMIM Acetate compared with 0%: at least as active in 2.9% EMIM Acetate as in 0% EMIM Acetate
[3]; listed as P. horikoshii
  activity in 2.9% EMIM Acetate compared with 0%: remain unchanged
[3]; 20% EMIM Acetate
  % Specific Activity: 100%
[3]; 80° C. vs 95° C.
  specific activity at 80° C. less than at 95° C.: around 10%
